# Reference: patent US20240254204A1 (NATIONAL UNIVERSITY OF SINGAPORE, published 2024)
# Residue numbers refer to the chain shown, from its start. “And” between values parts separate entries of the source, which are not always exact repeats. Equal values may be shown once.
# B1: Antibody 11 (SS6V11-E7) (antibody, V domains shown)
# VH: QVQLQESGPGLVKPSETLSLTCTVSGGFIGPHYWSWVRQPPGKGLEWIGYIYISGSTNYNPSLKSRLTISVDMSKSQFSLTLSSATAADTAVYYCARGGGYLETGPFEYWGQGTLVTVSS
# VL: DIVMTQSPLSLPVTPGEPASISCRSSQSLLQNNGYNYLAWYLQKPGQSPQLLIYLSSTRASGVPDRFSGSGSGTDFTLKISRVEAEDVGVYYCMQSLQIPGTFGQGTRLEIK
# B2: Antibody 13 (SS6V13-F1) (antibody, V domains shown)
# VH: QVQLQESGPGLVKPSETLSLTCSVSGVSILGSYWGWIRQPPGTGLQWIGYIYFSENTNYNPSLQSRVTMSLDTSKNLLSLKLSSVTAADTAVYYCARGGGYLETGPFDSWGQGTLVTVSS
# VL: B1 VL with S28G, L30V, N32S, S56G, T58N, S96G, I99T
# B3: Antibody 20 (SS6V20-F5) (antibody, V domains shown)
# VH: QVQLQESGPGLVKPSETLSLTCTVSGGSIIGYYWSWIRQPPGKGLEWIGYIYFSANTNYNPSLKSRVTMSVDMSKKQFSLKLRSVTAADTAVYYCARGGGYLETGPLDFWGQGILVTVSS
# VL: B1 VL with L30M, N32L, K44R, S56G, S81T, S96G
# Target: SARS-COV-2 Alpha full-length spike (SARS-CoV-2 Alpha)
# Assay: cell-based or functional assay
row,Binder,pseudovirus neutralization NT50
1,B1,< 10 ng/ml and < 0.067 nM
2,B2,< 10 ng/ml and < 0.067 nM
3,B3,< 10 ng/ml and < 0.067 nM

# Target: SARS-COV-2 Beta full-length spike (SARS-CoV-2 Beta)
# Assay: cell-based or functional assay
row,Binder,pseudovirus neutralization NT50
1,B1,< 10 ng/ml and < 0.067 nM
2,B2,< 10 ng/ml and < 0.067 nM
3,B3,< 10 ng/ml and < 0.067 nM

# Target: SARS-COV-2 Delta full-length spike (SARS-CoV-2 Delta)
# Assay: cell-based or functional assay
row,Binder,pseudovirus neutralization NT50
1,B1,< 10 ng/ml and < 0.067 nM
2,B2,< 10 ng/ml and < 0.067 nM
3,B3,< 10 ng/ml and < 0.067 nM

# Target: SARS-COV-2 Gamma full-length spike (SARS-CoV-2 Gamma)
# Assay: cell-based or functional assay
row,Binder,pseudovirus neutralization NT50
1,B1,< 10 ng/ml and < 0.067 nM
2,B2,< 10 ng/ml and < 0.067 nM
3,B3,< 10 ng/ml and < 0.067 nM
